Measurements published in patent publication US20260069727A1, “FORMULATIONS FOR RADIOTHERAPY AND DIAGNOSTIC IMAGING AND USE THEREOF IN TREATMENT, DIAGNOSIS AND IMAGING DISEASES” (priority 2022, published 2026).
Entries after “also recorded” stand apart in the source; their conditions may differ.

Key:
[1] = Radiochemical purity / stability of the formulation by radioHPLC; assay type: physicochemical
Source text: The stability of the formulation relates to the stability of the complex, where the radioisotope may undergo dissociation or the complex may undergo radiolysis. The stability of the complex can be measured by considering the radiochemical purity of the formulation. Radiochemical purity is defined as the amount of the radioisotope complexed by the sarcophagine ligand expressed as a percentage of the total amount of the radioisotope present in the formulation. The radioisotope may be present in the formulation as a complex with the sarcophagine ligand, as a free radioisotope or as part of a radiolysis product. […] In the embodiments, described herein, radiochemical purity may be determined by techniques such as radioHPLC, where the amount of the radioisotope in either its complexed or free form is determined and compared with the amount of the radioisotope introduced to the formulation. A person skilled in the art would understand the necessary conditions for separation, analysis and quantification of the formulation by radioHPLC. Nonetheless, in certain embodiments, the mobile phase used to analyse a formulation as disclosed herein by radioHPLC comprises about 0.1% trifluoroacetic acid (TFA) in water. […]
Product stability was monitored up to 96 hours post End of Synthesis (EOS) for 3 validation batches of [^67Cu]Formula(Ib) in an aqueous formulation prepared as outlined above. […]

[2] = Free 67Cu in the formulation by radioTLC; assay type: physicochemical; details: batch QC result; acceptance ≤5%
Source text: The stability of the complex can also be measured by considering the amount of free copper, i.e. free copper radioisotope that is intended to be complexed with the sarcophagine ligand, present in the formulation. In certain embodiments, the amount of free copper radioisotope present in formulation is not more than about 5%. In other embodiments, the amount of free copper radioisotope present in the formulation is not more than about 4%. In other embodiments, the amount of free copper present in the formulation is not more than about 3%. In other embodiments, the amount of free copper present in the formulation is not more than about 2%. In other embodiments, the amount of free copper present in the formulation is not more than about 1%. In other embodiments, the amount of free ^67Cu present in the formulation is less than about 1%. In other embodiments, the amount of free ^67Cu present in the formulation is less than about 2%.
TLC was performed with a mobile phase of 10 mM NaEDTA in 50 mM phosphate buffer using a silica gel 60 F254 aluminium backed TLC plate with dimensions of 1 cm×10 cm.

[3] = pH by probe (quality control); assay type: physicochemical; details: batch QC result; acceptance 4.0-8.0
[4] = Appearance / visible particles in injection (quality control); assay type: physicochemical; details: batch QC result
[5] = cited from earlier work

SMILES	Radiochemical purity by radio-HPLC ([1]; batch QC result, acceptance ≥90%) [%]	radiochemical purity (RPC) over the stability test ([1]; up to 96 hours post End of Synthesis, 3 validation batches) [%]	Free [67Cu]Cu2+ by TLC [2] [%]	pH by probe [3]	Appearance/Visible particles in injection [4]	pKa (acid dissociation constant) [5]
CC(C)CC(NC(=O)CC(O)C(CC(C)C)NC(=O)C(Cc1c[nH]cn1)NC(=O)CNC(=O)C(NC(=O)C(C)NC(=O)C(Cc1c[nH]c2ccccc12)NC(=O)C(CCC(N)=O)NC(=O)C(Cc1ccccc1)NC(=O)CCOCCNC(=O)CCCC(=O)NC12CNCCNCC(C)(CNCCNC1)CNCCNC2)C(C)C)C(N)=O (stereo not drawn) [[^67Cu]Formula (Ib), metal not drawn]	94.23	≥ 94.0	0	6.72	Clear ✓; also recorded: Particle-free ✓	
O=C(O)c1cc(O)ccc1O [gentisic acid, 2,5-dihydroxybenzoic acid]						about 2.5
